# B1: EEF1D, endogenous (natural protein, human (endogenous in HEK293T), UniProt P29692 1-281, looked up)
# chain: MATNFLAHEKIWFDKFKYDDAERRFYEQMNGPVAGASRQENGASVILRDIARARENIQKSLAGSSGPGASSGTSGDHGELVVRIASLEVENQSLRGVVQELQQAISKLEARLNVLEKSSPGHRATAPQTQHVSPMRQVEPPAKKPATPAEDDEDDDIDLFGSDNEEEDKEAAQLREERLRQYAEKKAKKPALVAKSSILLDVKPWDDETDMAQLEACVRSIQLDGLVWGASKLVPVGYGIRKLQIQCVVEDDKVGTDLLEEEITKFEEHVQSVDIAAFNKI
# notes: EEF1D (guanine nucleotide exchange factor subunit of EEF1H), human, endogenous in HEK293T; source: endogenous, HEK293T lysate
# B2: valine tRNA synthase (VARS), endogenous (enzyme, human (endogenous in HEK293T), UniProt P26640 1-1264, looked up)
# chain: MSTLYVSPHPDAFPSLRALIAARYGEAGEGPGWGGAHPRICLQPPPTSRTPFPPPRLPALEQGPGGLWVWGATAVAQLLWPAGLGGPGGSRAAVLVQQWVSYADTELIPAACGATLPALGLRSSAQDPQAVLGALGRALSPLEEWLRLHTYLAGEAPTLADLAAVTALLLPFRYVLDPPARRIWNNVTRWFVTCVRQPEFRAVLGEVVLYSGARPLSHQPGPEAPALPKTAAQLKKEAKKREKLEKFQQKQKIQQQQPPPGEKKPKPEKREKRDPGVITYDLPTPPGEKKDVSGPMPDSYSPRYVEAAWYPWWEQQGFFKPEYGRPNVSAANPRGVFMMCIPPPNVTGSLHLGHALTNAIQDSLTRWHRMRGETTLWNPGCDHAGIATQVVVEKKLWREQGLSRHQLGREAFLQEVWKWKEEKGDRIYHQLKKLGSSLDWDRACFTMDPKLSAAVTEAFVRLHEEGIIYRSTRLVNWSCTLNSAISDIEVDKKELTGRTLLSVPGYKEKVEFGVLVSFAYKVQGSDSDEEVVVATTRIETMLGDVAVAVHPKDTRYQHLKGKNVIHPFLSRSLPIVFDEFVDMDFGTGAVKITPAHDQNDYEVGQRHGLEAISIMDSRGALINVPPPFLGLPRFEARKAVLVALKERGLFRGIEDNPMVVPLCNRSKDVVEPLLRPQWYVRCGEMAQAASAAVTRGDLRILPEAHQRTWHAWMDNIREWCISRQLWWGHRIPAYFVTVSDPAVPPGEDPDGRYWVSGRNEAEAREKAAKEFGVSPDKISLQQDEDVLDTWFSSGLFPLSILGWPNQSEDLSVFYPGTLLETGHDILFFWVARMVMLGLKLTGRLPFREVYLHAIVRDAHGRKMSKSLGNVIDPLDVIYGISLQGLHNQLLNSNLDPSEVEKAKEGQKADFPAGIPECGTDALRFGLCAYMSQGRDINLDVNRILGYRHFCNKLWNATKFALRGLGKGFVPSPTSQPGGHESLVDRWIRSRLTEAVRLSNQGFQAYDFPAVTTAQYSFWLYELCDVYLECLKPVLNGVDQVAAECARQTLYTCLDVGLRLLSPFMPFVTEELFQRLPRRMPQAPPSLCVTPYPEPSECSWKDPEAEAALELALSITRAVRSLRADYNLTRIRPDCFLEVADEATGALASAVSGYVQALASAGVVAVLALGAPAPQGCAVALASDRCSIHLQLQGLVDPARELGKLQAKRVEAQRQAQRLRERRAASGYPVKVPLEVQEADEAKLQQTEAELRKVDEAIALFQKML
# notes: valine tRNA synthase (VARS), human, endogenous in HEK293T; source: endogenous, HEK293T lysate
# B3: EEF1B, endogenous (natural protein, human (endogenous in HEK293T), UniProt P24534 1-225, looked up)
# chain: MGFGDLKSPAGLQVLNDYLADKSYIEGYVPSQADVAVFEAVSSPPPADLCHALRWYNHIKSYEKEKASLPGVKKALGKYGPADVEDTTGSGATDSKDDDDIDLFGSDDEEESEEAKRLREERLAQYESKKAKKPALVAKSSILLDVKPWDDETDMAKLEECVRSIQADGLVWGSSKLVPVGYGIKKLQIQCVVEDDKVGTDMLEEQITAFEDYVQSMDVAAFNKI
# notes: EEF1B (guanine nucleotide exchange factor subunit of EEF1H), human, endogenous in HEK293T; source: endogenous, HEK293T lysate
# Experiments:
# [1] = target: EEF1G (eukaryotic elongation factor 1 subunit gamma), endogenous (human (endogenous in HEK293T)) (UniProt P26641); test: mass photometry; EEF1S complex recovered by glutathione-Sepharose from HEK293T lysate and run on SEC (Superdex 200); stoichiometry from the mass (~270 kDa) and Coomassie staining; complex formed in cells and co-purified
# [2] = target: endogenously Strep-tagged EEF1G (human (endogenous in HEK293T)) (UniProt P26641); test: mass photometry; EEF1H complex recovered by affinity purification of endogenous strep-tagged EEF1G from HEK293T lysates; stoichiometry predicted from molecular weight of components and Coomassie staining; complex formed in cells and co-purified
# [3] = target: T1, endogenously Strep-tagged EEF1G (human (endogenous in HEK293T), UniProt P26641 1-437); test: as above; details: partners not purified
# T1 construct: EEF1G, human, endogenous locus of HEK293T edited to carry an internal Twin-Strep tag in the unstructured region between the GST and C-terminal domains; also called strep-EEF1G; source: endogenous locus tagged by CRISPR-Cas9 knock-in, HEK293T; not shown: Twin-Strep, internal (in the unstructured region between the GST and C-terminal domains), kept
# [4] = target: T2, EEF1G (eukaryotic elongation factor 1 subunit gamma), endogenous (human (endogenous in HEK293T), UniProt P26641 1-437); test: mass photometry; EEF1S complex recovered by glutathione-Sepharose from HEK293T lysate and run on SEC (Superdex 200); stoichiometry from the mass (~270 kDa) and Coomassie staining; complex formed in cells and co-purified; details: partners not purified
# T2 construct: EEF1G, human, endogenous untagged protein in HEK293T lysate, recovered on glutathione-Sepharose; source: endogenous, HEK293T lysate
# T2 sequence (P26641 whole entry): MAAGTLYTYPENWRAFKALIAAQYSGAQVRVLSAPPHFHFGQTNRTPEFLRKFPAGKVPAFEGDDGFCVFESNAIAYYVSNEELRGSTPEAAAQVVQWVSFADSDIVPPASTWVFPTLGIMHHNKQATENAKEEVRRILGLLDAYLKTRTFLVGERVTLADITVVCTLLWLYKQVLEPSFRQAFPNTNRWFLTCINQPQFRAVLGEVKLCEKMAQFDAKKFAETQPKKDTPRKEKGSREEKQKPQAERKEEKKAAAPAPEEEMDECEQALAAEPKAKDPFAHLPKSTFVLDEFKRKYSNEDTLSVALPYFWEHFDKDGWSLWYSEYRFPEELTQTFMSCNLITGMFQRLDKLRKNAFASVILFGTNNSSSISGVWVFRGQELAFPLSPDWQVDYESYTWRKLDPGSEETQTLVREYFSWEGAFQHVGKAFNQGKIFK
# T1 sequence (P26641 whole entry, the tested form may be a part): as the sequence (P26641 whole entry) above
# Chain of EEF1G (eukaryotic elongation factor 1 subunit gamma), endogenous (human (endogenous in HEK293T)) (P26641 whole entry): as above
# Chain of endogenously Strep-tagged EEF1G (human (endogenous in HEK293T)) (P26641 whole entry): as above
Molecule,stoichiometry N [1],copies in the EEF1H complex (with six copies of EEF1G) [2],copies in the EEF1H complex (with six copies of EEF1G) [3],stoichiometry N [4]
"EEF1A, endogenous (from UniProt P68104 1-462) (natural protein)",1,6 copies,–,–
B1,–,–,~4 copies,–
B2,–,–,~2 copies,–
B3,–,–,~4 copies,~1
